# Source: paper PMC3039135
# Legend:
# Assay in all cases: SPR
# [1] = target: WO2_VH/20.1_VL rFab (mouse | human)
# [2] = target: 20.1_VH/WO2_VL rFab (mouse | human)
# [3] = target: WO2 (Y58>A) mutant rFab (mouse | human)
# [4] = target: gWO2 rFab (mouse | human)
# [5] = target: gWO2_VH/WO2_VL rFab (mouse | human)
# [6] = target: WO2_VH/gWO2_VL rFab (mouse | human)
# [7] = target: biotinylated Aβ1–42 high molecular weight (HMW) soluble oligomers (human)
# [8] = target: biotinylated Aβ1–16 peptide (human)
Kd [1] [µM],koff [1] [s⁻¹],kon [1] [M⁻¹ s⁻¹],Kd [2] [µM],koff [2] [s⁻¹],kon [2] [M⁻¹ s⁻¹],Kd [3] [µM],Kd [4] [µM],Kd [5] [µM],koff [5] [s⁻¹],kon [5] [M⁻¹ s⁻¹],Kd [6] [µM],koff [6] [s⁻¹],kon [6] [M⁻¹ s⁻¹],Kd [7] [µM],koff [7] [s⁻¹],Kd [8] [µM],koff [8] [s⁻¹],kon [7] [M⁻¹ s⁻¹],kon [8] [M⁻¹ s⁻¹],Molecule
0.041,0.0614,1.5e+06,0.0028,0.0015,540000,4.9,21.3,0.079,0.026,330000,0.349,0.145,390000,,,,,,,Aβ1–16-Im7 fusion protein (domain or fragment)
,,,,,,,,,,,,,,0.0892,0.00546,0.154,0.00974,,,"WO2/10D5_HCDR3 rFab (Fab, V domains shown) VH: VTLKESGPGLLKPSQTLSLTCSFSGFSIRTSKVGVSWIRQPSGKGLEWLAHIYWDDDKRYNPSLESRLTISKDTSRDMVFMKITSVDTADTATYYCVRRPITPVLVDAMDYWGQGTTLTVSS VL: DVLMTQTPLSLPVNLGEQASISCRSSQSIVHSNGHTYLEWYLQRPGQSPKLLIYQVSTRFSGVPDRFSGSGSGTDFTLRISRVEAEDLGVYYCFQASLVPLTFGAGTKLELK"
,,,,,,,,,,,,,,0.135,0.0261,0.263,0.0449,133000,171000,"WO2/12A11_HCDR3 rFab (Fab, V domains shown) VH: VTLKESGPGLLKPSQTLSLTCSFSGFSIRTSKVGVSWIRQPSGKGLEWLAHIYWDDDKRYNPSLESRLTISKDTSRDMVFMKITSVDTADTATYYCARRTTTADYFAYWGQGTTLTVSS VL: DVLMTQTPLSLPVNLGEQASISCRSSQSIVHSNGHTYLEWYLQRPGQSPKLLIYQVSTRFSGVPDRFSGSGSGTDFTLRISRVEAEDLGVYYCFQASLVPLTFGAGTKLELK"
